*1 amine or outer side, *2 acyl side, *3 side chain or, on linkers, in order; H or OH if unused. Where a SMILES comes first, the peptide text is derived from it. Bridges are numbered along the chain shown (N, C = ends). Roman numbers before positions name the chains, in order. [ ]: non-standard residue; d: D form. Actinocin(9to1) = Cc1c2oc3c(C)ccc(C(=O)[*:1])c3nc-2c(C(=O)[*:2])c(N)c1=O; NMeV = CN[C@H](C(=O)O)C(C)C; Sar = CNCC(=O)O
What was measured:
[1] = system: latently HIV-1 infected primary T cells; experiment: Reactivation of latent HIV-1 infection in primary T cells (GFP); format: cell-based; settings: 24 hours
Method: Latently HIV-1 infected primary T cells were treated for 24 hours with aclacinomycin (ACM) or dactinomycin (ActD), or with the anti-CD3 monoclonal antibody (mAb) OKT3. Reactivation levels were determined as a percentage of GFP-positive cells 24 hours after stimulation. Viability of the cells correlates with the size of the symbol.
To determine if aclacinomycin or dactinomycin were capable of reactivating a latent HIV-1 infection in primary T cells, latently HIV-1 infected primary T cells were treated with aclacinomycin or dactinomycin or with the anti-CD3 monoclonal antibody OKT3 for 24 hours. Reactivation of the latent HIV-1 infection was observed by increasing levels of GFP fluorescence.

[2] = system: latently HIV-1 infected monocytic THP89GFP cells; experiment: HIV-1 reactivation in latently infected monocytic THP89GFP cells; format: cell-based
[3] = system: NF-κB dependent promoters in 293T cells; experiment: NF-κB dependent promoter constructs transfected into 293T cells (EGFP expression); format: cell-based
Method: FIGS. 6A-6C show HRF triggers suboptimal functional induction of NF-κB dependent gene expression. […] The HIV-1 reactivating kinetics were determined by stimulating CA5 T cells with optimal concentrations of HRF, phorbol 12-myristate 13-acetate (PMA) and tumor necrosis factor-α (TNF-α) and analyzing HIV-1 reactivation as a function of EGFP-expression over a period of 48 hours. Data for all agents are depicted as the percentage of EGFP-positive cells in the total cell population. […] To test the ability of HRF to mediate Tat-independent activation of the HIV-1 LTR, NOMI cells (HIV-1 reporter cell line with an integrated LTR-EGFP construct) were stimulated with increasing concentrations of PMA (0.01-10 ng/ml), TNF-α (0.003-30 μg/ml) and HRF supernatant (0.3-100 μl). The level of LTR-induction was then measured as EGFP-expression detectable after 24 hours as determined by flow cytometric analysis. Arrows indicate the concentrations at which the respective stimulus would have triggered full HIV-1 reactivation in the latently HIV-1 infected CA5 T cell line. […] 293T cells were transfected with several NF-κB dependent promoter constructs and then stimulated with either TNF-α (10 μg/ml) or HRF (25 μl). Promoter induction was measured as total EGFP expression. (NF-κB:pNF-κB-d2EGFP; LTR:HIV-1 LTR-GFP; IL-8:pIL-8 GFP; TNF:human TNF-GFP; MSCV:murine stem cell virus LTR driven GFP; no NF-κB responsive elements).
The utilized EGFP reporter virus HIV-1 NLENG1-IRES has been described elsewhere (Kutsch et al., J. Virol. 76:8776-86 (2002); Levy et al., Proc. Natl. Acad. Sci. USA 101:4204-9 (2004)). The reporter plasmid pNF-κB-d2EGFP was purchased from Clontech (Mountain View, Calif.). The LTR-GFP construct and the IL-8 reporter construct have been described earlier (Choi et al., Mol. Cell. Biol. 22:724-36 (2002)). The TNF-promoter construct was generated by cloning the human TNF-α promoter element defined by primer pair 5′-BglII; 5′-[…] […]-3′ (SEQ ID NO:2) and 3′-AgeI; 5′-[…] […]-3′ (SEQ ID NO:3) into pd2EGFP (Clontech). MSCV-GFP was generated by cloning the EGFP-gene into retroviral pMSCV-puro vector (Clontech).

NF-κB p50 and p65 = NF-κB p50 and p65 activity in PBMCs (TransAM NF-κB family ELISA); format: cell-based; settings: compared to PHA-L
Method: (§1) FIGS. 8A-8C show HRF induced NF-κB and cytokine expression in peripheral blood mononuclear cells (PBMCs). […] PBMCs were activated with optimal concentrations of either PHA-L or with HRF. Cells were harvested at the indicated time points. Nuclear extracts were generated and NF-κB p50 activity and NF-κB p65 activity were determined using the TransAM™ NF-κB family ELISA kit (Active Motif). […] PBMCs from four different healthy donors were stimulated with an anti-CD3/CD28 antibody combination and infected with a GFP reporter virus on day 4 post-stimulation. HIV-1 replication was monitored in the absence (C) or presence of HRF for 5 days and the achieved HIV-1 infection levels were determined by flow cytometric analysis for the percentage of EGFP-positive cells. All infections were normalized to the infection level in the untreated culture and the histogram represents the mean infection levels obtained in 4 donor cultures±standard deviation. […] Culture supernatants were collected after 24 hours and the concentrations of a panel of cytokines was determined by BioPlex analysis. […]
NF-κB activity in nuclear extracts was quantified using the TransAM™ NF-κB family ELISA kit from Active Motif, Inc. (Carlsbad, Calif.) according to the manufacturer's instructions.

[4] = system: HIV-1 replication in PBMCs; experiment: HIV-1 replication in PBMCs infected with GFP reporter virus; format: cell-based; settings: saturating HRF levels, 5 days post infection
Method: FIGS. 8A-8C show HRF induced NF-κB and cytokine expression in peripheral blood mononuclear cells (PBMCs). […] PBMCs were activated with optimal concentrations of either PHA-L or with HRF. Cells were harvested at the indicated time points. Nuclear extracts were generated and NF-κB p50 activity and NF-κB p65 activity were determined using the TransAM™ NF-κB family ELISA kit (Active Motif). […] PBMCs from four different healthy donors were stimulated with an anti-CD3/CD28 antibody combination and infected with a GFP reporter virus on day 4 post-stimulation. HIV-1 replication was monitored in the absence (C) or presence of HRF for 5 days and the achieved HIV-1 infection levels were determined by flow cytometric analysis for the percentage of EGFP-positive cells. All infections were normalized to the infection level in the untreated culture and the histogram represents the mean infection levels obtained in 4 donor cultures±standard deviation. […] PBMCs from four healthy donors were left unstimulated (C) or stimulated with an anti-CD3/CD28 antibody combination as a positive control or were stimulated with a concentration of HRF that would trigger maximum HIV-1 reactivation in CA5 T cells. Culture supernatants were collected after 24 hours and the concentrations of a panel of cytokines was determined by BioPlex analysis. […]

IL-8, TNF-α, and IFN-γ = experiment: Cytokine secretion by PBMCs (BioPlex analysis); format: cell-based, human; settings: 24 hours
Method: as §1, with “cells.” for “cells. All infections were normalized to the infection level in the untreated culture and the histogram represents the mean infection levels obtained in 4 donor cultures±standard deviation.”
Following stimulation of the peripheral blood mononuclear cells (PBMCs) with PHA-L or HIV-1 reactivating factor (HRF), supernatant samples were collected at time points between 12 and 48 hours post stimulation. […] Therefore, cytokine levels in culture supernatant samples from all donors were determined at the 24 hour time point using a customized Milliplex mAP kit for the simultaneous analysis of six human cytokines (IL-2, IL-4, IL-6, IL-8, TNF-α and IFN-γ). […]

Row | Molecule | reactivation of latent HIV-1 infection [1] | HIV-1 reactivation [2] | GFP expression driven by NF-κB responsive promoter constructs (IL-8, TNF-α, HIV-1 LTR, three consensus NF-κB sites) [3] | GFP expression of construct under control of murine stem cell virus LTR (no NF-κB responsive element) [3] | NF-κB p50 and p65 activity peak (NF-κB p50 and p65) | HIV-1 replication [4] | pro-inflammatory cytokine secretion (IL-8, TNF-α, and IFN-γ) (IL-8, TNF-α, and IFN-γ)
1 | Cc1c2oc3c(C)ccc(C(=O)N[C@@H]4C(=O)N[C@H](C(C)C)C(=O)N5CCC[C@H]5C(=O)N(C)CC(=O)N(C)[C@@H](C(C)C)C(=O)O[C@@H]4C)c3nc-2c(C(=O)N[C@@H]2C(=O)N[C@H](C(C)C)C(=O)N3CCC[C@H]3C(=O)N(C)CC(=O)N(C)[C@@H](C(C)C)C(=O)O[C@@H]2C)c(N)c1=O [dactinomycin] (I: T[dV]P[Sar][NMeV] / II: T[dV]P[Sar][NMeV]; ester I:1-I:C, II:1-II:C; linker I:N-II:N via Actinocin(9to1)) | capable of reactivating latent HIV-1 infections |  |  |  |  |  | 
2 | HRF: flagellin polypeptide from Massilia timonae (SEQ ID NO:10), used as bacterial culture supernatant (protein) MASVINTNVPSLNSQRNLSTSQAQLNTSIQRLSSGMRINSAKDDAAGLAISDRMNSQIKGMTQATRNANDGVSMAQTAEGALSSSGDILQRIRELAVQSSNSSNSASDRKALQTEVTQLSSELNRIANTTEFNGQKLMDGTLGTANFQVGANAGQLISMTGANFNTSVYGNNQIAGDAAKAAATTSAAATGAFTISGYLGTSAAINTTDADTAKTIAASINNVTGDTGVTATARTDSFLKSAGGAHTMSLASDNSGTGEAVDISFTVGDGGDTADDYAAAISAFNAQTAKTGVTAEYDAVEKGLKLTNSAGENISLTNKAGSADIDMDTYAADGALMASALTLEAGDVGVANGRVTMDSEKSFSVAEGTDTGFELADSSALKSVAKIDISDFEGAQEAIKVADAALSAVNSQRAEYGALQSRFESAISNLSSSTENLSASRSRIVDTDFAAETAKMTRGQILQQAGTSMLAQANSLPNGVLSLLRG |  | reactivated latent HIV-1 infection | weak GFP expression | Neither TNF-α nor HRF influenced GFP expression | very high, but short-lived | not significantly increased | did not induce meaningful levels
